Experimental data published in PMC9765406.

How the values were obtained:
[1] = target: BfpD, type IV pilus (bundle-forming pilus) extension ATPase from enteropathogenic Escherichia coli (enteropathogenic Escherichia coli (EPEC)); assay: cryo-EM structure
[2] = target: BfpD, type IV pilus (bundle-forming pilus) extension ATPase from enteropathogenic Escherichia coli (enteropathogenic Escherichia coli (EPEC)); assay: negative-stain electron microscopy with reference-free 2D averaging

Substance: BfpD, type IV pilus (bundle-forming pilus) extension ATPase from enteropathogenic Escherichia coli (enzyme)
- stoichiometry N [1]: 6
- stoichiometry N [2]: 6
